The target of experiment [1] is T1, FLAG-tagged human IL-11 expressed at the surface of transiently transfected cells (human, UniProt P20809 22-199).
T1 construct: also called IL-11 expressing HEK cells; target cells expressing human IL-11 at their surface; not shown: FLAG tag added to the N-terminus
T1 sequence: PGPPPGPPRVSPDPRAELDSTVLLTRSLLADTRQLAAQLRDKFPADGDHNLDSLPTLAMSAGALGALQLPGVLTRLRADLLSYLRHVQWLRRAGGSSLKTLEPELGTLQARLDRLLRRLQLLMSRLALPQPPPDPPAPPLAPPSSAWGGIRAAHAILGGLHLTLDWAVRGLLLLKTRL
Briefly: flow cytometry, hybridoma supernatant on cells transfected with pB1-IL11-hum.FL; relative to the anti-FLAG positive control (100%). On the technique in general: In flow cytometry, cells or beads pass a laser one at a time.

Experiment [2] addresses T2, Human IL-11 (human, UniProt P20809 22-199).
T2 construct: Recombinant human IL-11 (GenScript Cat. No. Z03108-1) or IL-11 secreted by human cells; the mature form is said to have 178 residues; also called recombinant human IL-11; endogenously produced IL-11
T2 sequence: T1 sequence
Briefly: SPR, BIAcore T200; sensorgrams with association to 250 s and dissociation to 750 s. As for the experimental part: (§1) Real-time binding kinetics of anti-IL-11 antibody BSN-3C6 to human and mouse IL-11 were measured by surface plasmon resonance (SPR) using a BIAcore T200 system (GE Healthcare, USA). The association and dissociation were measured for 250 s and 500 s respectively. The equilibrium binding constant KD was determined by the ratio of the binding rate constants kd/ka.
For orientation: In SPR one partner is held on a chip, and binding of the other changes the refractive index at the surface.

Experiment [3] addresses T3, Mouse IL-11 (mouse, UniProt P47873 22-199, limits assumed).
T3 construct: also called murine IL-11; recombinant murine IL-11
T3 sequence (looked up): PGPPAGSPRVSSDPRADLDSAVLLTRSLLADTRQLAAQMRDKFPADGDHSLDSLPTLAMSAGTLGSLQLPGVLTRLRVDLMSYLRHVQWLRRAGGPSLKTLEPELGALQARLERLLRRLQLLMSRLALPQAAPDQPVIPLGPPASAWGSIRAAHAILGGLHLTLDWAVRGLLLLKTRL
Briefly: real-time binding kinetics; the text says SPR (BIAcore T200), the sheet's axis reads Binding [nm]. The procedure: as §1

The target in experiment [4] is T3, Mouse IL-11. Briefly: SPR, BIAcore T200; KD from kd/ka. As for the experimental part: as §1
In experiment [5] the target is T2, Human IL-11. Nature of the experiment: SPR, BIAcore T200; KD from kd/ka. As for the experimental part: as §1
Experiment [6] deals with T1, FLAG-tagged human IL-11 expressed at …. Briefly: flow cytometry, hybridoma supernatant on cells transfected with pB1-IL11-hum.FL.
Experiment [7] addresses T2, Human IL-11. Briefly: told from inhibition of MMP2 secretion by TGFB1-stimulated primary human atrial fibroblasts (FIG. 54A). As for the experimental part: Primary human atrial fibroblasts were incubated with TGFB1 (5 ng/ml) and varying concentrations of humanised 3C6 clones. MMP2 secretion into the supernatant by human atrial fibroblasts was assessed to estimate the % of inhibition.

Numbering of substitutions follows the chain as printed.

B1: BSN-3C6 (antibody, V domains shown)
VH: EVQLQQSGPELVKPGASVKIPCKASGYTFTDYNMDWVKQSHGKSLEWIGDINPHNGGPIYNQKFTGKATLTVDKSSSTAYMELRSLTSEDTAVYYCARGELGHWYFDVWGTGTTVTVSS
VL: DIVLTQSPASLAVSLGQRATISCRASKSVSTSGYSYIHWYQQKPGQPPKLLIYLASNLDSGVPARFSGSGSGTDFTLNIHPVEEEDAATYYCQHSRDLPPTFGGGTKLEIK
notes: Mouse monoclonal antibody from a hybridoma; also called A6; anti-IL-11 antibody clone BSN-3C6
The term koff denotes the rate constant with which the complex falls apart. A high value points to fast dissociation. Usually kon stands for a measure of how fast the partners come together. Lower therefore signals slower complex formation. The term Kd denotes a measure of binding affinity in units of concentration. Lower therefore signals tighter binding. As to B1, the “binding relative to anti-FLAG positive control” value in experiment [1] came out at 176%. Besides, the koff worked out at 0.000635 s⁻¹ with Human IL-11 [2] and 0.000112 s⁻¹ in the experiment with Mouse IL-11 [3]. The values for the kon with Human IL-11 [2] and in the experiment with Mouse IL-11 [3] were 153000 M⁻¹ s⁻¹ and 46900 M⁻¹ s⁻¹, respectively. Also, the Kd is 2.38 nM with Mouse IL-11 [4] and 4.14 nM with Human IL-11 [5]. In experiment [6], the GMFI is 222000.

B2: BSN-7D4 (antibody, V domains shown)
VH: B1 VH with P21S, H41Q, S44R, H54N, N55Y, P58T, T65K, A92T, A97T
VL: B1 VL with A9P, A12T, T31A, I37M, A55T, D59E, R96W
notes: Mouse monoclonal antibody from a hybridoma; also called A12
With B2, the “binding relative to anti-FLAG positive control” value in experiment [1] was determined as 176%. The same molecule yielded a GMFI in experiment [6] of 221000.

B3: Humanised 3C6 clone VH 2.2/VL 2.2 (antibody, V domains shown)
VH: EVQLVQSGAEVKKPGASVKISCKASGYTFTDYNMDWVKQAPGQRLEWIGDINPHNGGPIYNQKFTGRATLTVDKSASTAYMELSSLRSEDTAVYYCARGELGHWYFDVWGQGTTVTVSS
VL: DIVLTQSPASLALSPGERATLSCRASKSVSTSGYSYIHWYQQKPGQAPRLLIYLASNLDSGVPARFSGSGSGTDFTLTISSLEEEDFATYYCQHSRDLPPTFGQGTKLEIK
notes: also called 3C6 VH2.2/VL2.2
For the molecule B3, in the experiment with Human IL-11 [7], the binding result was “binds”.

B4: Humanised 3C6 clone VH 2.3/VL 2.3 (antibody, V domains shown)
VH: B3 VH with K38R, A68V
VL: B3 VL with S10T, A12S, E84P
Consider B4, for which the binding result with Human IL-11 [7] was “binds”.

B5: Humanised 3C6 clone VH 2.2/VL 2.4 (antibody, V domains shown)
VH: B3 VH
VL: B3 VL with D1E, S10T, A12S, E84P
On to B5, for which the binding result with Human IL-11 [7] was “binds”.

B6: Humanised 3C6 clone VH 2.2/VL 2.3 (antibody, V domains shown)
VH: B3 VH
VL: B3 VL with S10T, A12S, E84P
For the molecule B6, the binding result with Human IL-11 [7] was “binds”.

B7: Humanised 3C6 clone VH 2.2/VL 2.1 (antibody, V domains shown)
VH: B3 VH
VL: B3 VL with A47P, T78N, S80H, S81P
notes: T0003 heads the columns Heavy chain and Light chain, but the entries are variable domains; also called 3C6 VH2.2/VL2.1
For the molecule B7, in the experiment with Human IL-11 [7], the binding result is reported as “binds”.

B8: Humanised 3C6 clone VH 2.3/VL 2.2 (antibody, V domains shown)
VH: B3 VH with K38R, A68V
VL: B3 VL
Consider B8, for which the binding result in the experiment with Human IL-11 [7] is “binds”.

For the origin of these results see US20210230266A1 (SINGAPORE HEALTH SERVICES PTE, published 2021).
